Like-named read-outs stand apart in the source and are kept apart here.
How the values were obtained:
[1] = target: 6631.V3.C10 (HIV-1)
[2] = target: gp120 of X2088 (HIV-1 strain X2088.c9)
[3] = target: CAAN.A2 (HIV-1)
[4] = target: CAAN.A2 (HIV-1); remark: listed apart in the source
[5] = target: D167N (HIV-1); assay: gp120 capture ELISA
[6] = target: D279A (HIV-1); assay: gp120 capture ELISA
[7] = target: D368A (HIV-1); assay: gp120 capture ELISA
[8] = target: D457A (HIV-1); assay: gp120 capture ELISA
[9] = target: D474A (HIV-1); assay: gp120 capture ELISA
[10] = target: E370A (HIV-1); assay: gp120 capture ELISA
[11] = target: G366A (HIV-1); assay: gp120 capture ELISA
[12] = target: G367A (HIV-1); assay: gp120 capture ELISA
[13] = target: G471A (HIV-1); assay: gp120 capture ELISA
[14] = target: G472A (HIV-1); assay: gp120 capture ELISA
[15] = target: G473A (HIV-1); assay: gp120 capture ELISA
[16] = target: I371A (HIV-1); assay: gp120 capture ELISA
[17] = target: I467A (HIV-1); assay: gp120 capture ELISA
[18] = target: K282A (HIV-1); assay: gp120 capture ELISA
[19] = target: M373A (HIV-1); assay: gp120 capture ELISA
[20] = target: M475A (HIV-1); assay: gp120 capture ELISA
[21] = target: N197T (HIV-1); assay: gp120 capture ELISA
[22] = target: N262A (HIV-1); assay: gp120 capture ELISA
[23] = target: N280A (HIV-1); assay: gp120 capture ELISA
[24] = target: N332A (HIV-1); assay: gp120 capture ELISA
[25] = target: P369A (HIV-1); assay: gp120 capture ELISA
[26] = target: R469A (HIV-1); assay: gp120 capture ELISA
[27] = target: R476A (HIV-1); assay: gp120 capture ELISA
[28] = target: S365A (HIV-1); assay: gp120 capture ELISA
[29] = target: T283A (HIV-1); assay: gp120 capture ELISA
[30] = target: V372A (HIV-1); assay: gp120 capture ELISA
[31] = target: monomeric gp120^JRCSF (HIV-1 strain JRCSF) (UniProt P20871); assay: gp120 capture ELISA
[32] = target: gp120 Resurfaced Stabilized Core (RSC3); assay: ELISA on coated RSC3
[33] = target: CentrB, centromere B; assay: Luminex AtheNA Multi-Lyte ANA test
[34] = target: Histone; assay: Luminex AtheNA Multi-Lyte ANA test
[35] = target: Jo1 antigen; assay: Luminex AtheNA Multi-Lyte ANA test
[36] = target: RNP, ribonucleoprotein; assay: Luminex AtheNA Multi-Lyte ANA test
[37] = target: SSA, Sjogren's syndrome antigen A; assay: Luminex AtheNA Multi-Lyte ANA test
[38] = target: SSB, Sjogren syndrome antigen B (Homo sapiens (Human)) (UniProt P05455); assay: Luminex AtheNA Multi-Lyte ANA test
[39] = target: Scl 70, scleroderma 70; assay: Luminex AtheNA Multi-Lyte ANA test
[40] = target: Sm, Smith antigen; assay: Luminex AtheNA Multi-Lyte ANA test

SSB, Sjogren syndrome antigen B (Homo sapiens (Human)), sequence (P05455 whole entry): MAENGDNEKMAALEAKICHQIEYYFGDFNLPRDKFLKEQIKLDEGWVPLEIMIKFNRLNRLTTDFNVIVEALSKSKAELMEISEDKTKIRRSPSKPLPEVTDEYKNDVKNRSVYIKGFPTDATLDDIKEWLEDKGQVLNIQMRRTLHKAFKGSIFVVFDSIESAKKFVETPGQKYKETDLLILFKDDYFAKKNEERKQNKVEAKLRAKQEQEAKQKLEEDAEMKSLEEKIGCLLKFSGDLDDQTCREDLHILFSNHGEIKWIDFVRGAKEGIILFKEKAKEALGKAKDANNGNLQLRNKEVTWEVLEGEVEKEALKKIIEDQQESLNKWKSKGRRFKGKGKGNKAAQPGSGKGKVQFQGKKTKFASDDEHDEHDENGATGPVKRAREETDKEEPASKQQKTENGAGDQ
CentrB, centromere B, sequence (P07199 2-599): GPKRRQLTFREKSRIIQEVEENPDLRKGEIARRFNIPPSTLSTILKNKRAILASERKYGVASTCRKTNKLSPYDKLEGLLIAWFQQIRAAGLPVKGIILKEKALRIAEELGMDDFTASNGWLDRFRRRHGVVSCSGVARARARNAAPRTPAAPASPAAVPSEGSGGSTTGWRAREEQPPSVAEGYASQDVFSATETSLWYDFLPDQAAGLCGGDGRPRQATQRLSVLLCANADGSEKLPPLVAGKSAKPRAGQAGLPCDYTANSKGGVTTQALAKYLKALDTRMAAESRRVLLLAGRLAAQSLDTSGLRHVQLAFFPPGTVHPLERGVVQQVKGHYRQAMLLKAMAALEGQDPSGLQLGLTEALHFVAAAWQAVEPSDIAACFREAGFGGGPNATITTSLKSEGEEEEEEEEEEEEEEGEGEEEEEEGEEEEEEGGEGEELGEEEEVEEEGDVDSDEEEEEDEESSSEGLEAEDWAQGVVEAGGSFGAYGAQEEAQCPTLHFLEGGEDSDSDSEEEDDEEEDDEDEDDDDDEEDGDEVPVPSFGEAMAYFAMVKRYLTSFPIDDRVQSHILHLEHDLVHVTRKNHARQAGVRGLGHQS

N6 with CDRL1 of VRC01 (antibody)
neutralisation IC50 [1]: > 50 µg/mL
neutralisation IC50 [2]: > 50 µg/mL

N6 with CDRL3 of VRC01 (antibody)
neutralisation IC50 [1]: 0.139 µg/mL
neutralisation IC50 [2]: 0.125 µg/mL

N6 with FRH3 of VRC01 (antibody)
neutralisation IC50 [1]: 0.152 µg/mL

N6 with FRL1 of VRC01 (antibody)
neutralisation IC50 [1]: 0.642 µg/mL
neutralisation IC50 [3]: 1.01 µg/mL
neutralisation IC50 [2]: 1.14 µg/mL

N6 with FRL3 of VRC01 (antibody)
neutralisation IC50 [1]: > 50 µg/mL
neutralisation IC50 [2]: > 50 µg/mL

VRC01 ARP60-62GGGHC (antibody)
neutralisation IC50 [3]: 3.23 µg/mL

VRC01 G54YHC (antibody)
neutralisation IC50 [3]: 1.31 µg/mL

VRC01 N6CDRH3 (antibody)
neutralisation IC50 [3]: 2.23 µg/mL

VRC07 N6CDRH3 (antibody)
neutralisation IC50 [3]: 2.18 µg/mL

VRC08 N6CDRH3 (antibody)
neutralisation IC50 [3]: > 50 µg/mL

VRC27 (antibody)
neutralisation IC50 [4]: 0.264 µg/mL
Binding affinity relative to WT (%) [5]: 37%
Binding affinity relative to WT (%) [6]: 7%
Binding affinity relative to WT (%) [7]: 0%
Binding affinity relative to WT (%) [8]: 19%
Binding affinity relative to WT (%) [9]: 0%
Binding affinity relative to WT (%) [10]: 2%
Binding affinity relative to WT (%) [11]: 3%
Binding affinity relative to WT (%) [12]: 0%
Binding affinity relative to WT (%) [13]: 131%
Binding affinity relative to WT (%) [14]: 0%
Binding affinity relative to WT (%) [15]: 6%
Binding affinity relative to WT (%) [16]: 0%
Binding affinity relative to WT (%) [17]: 27%
Binding affinity relative to WT (%) [18]: 57%
Binding affinity relative to WT (%) [19]: 23%
Binding affinity relative to WT (%) [20]: 35%
Binding affinity relative to WT (%) [21]: 28%
Binding affinity relative to WT (%) [22]: 0%
Binding affinity relative to WT (%) [23]: 0%
Binding affinity relative to WT (%) [24]: 57%
Binding affinity relative to WT (%) [25]: 38%
Binding affinity relative to WT (%) [26]: 0%
Binding affinity relative to WT (%) [27]: 37%
Binding affinity relative to WT (%) [28]: 107%
Binding affinity relative to WT (%) [29]: 15%
Binding affinity relative to WT (%) [30]: 15%
Binding affinity relative to WT (%) [31]: 100%

VRC-PG04 (antibody)
Binding affinity relative to WT (%) [5]: 42%
Binding affinity relative to WT (%) [6]: 247%
Binding affinity relative to WT (%) [7]: 12%
Binding affinity relative to WT (%) [8]: 0%
Binding affinity relative to WT (%) [9]: 0%
Binding affinity relative to WT (%) [10]: 20%
Binding affinity relative to WT (%) [11]: 17%
Binding affinity relative to WT (%) [12]: 19%
Binding affinity relative to WT (%) [13]: 64%
Binding affinity relative to WT (%) [14]: 38%
Binding affinity relative to WT (%) [15]: 34%
Binding affinity relative to WT (%) [16]: 21%
Binding affinity relative to WT (%) [17]: 40%
Binding affinity relative to WT (%) [18]: 12%
Binding affinity relative to WT (%) [19]: 44%
Binding affinity relative to WT (%) [20]: 90%
Binding affinity relative to WT (%) [21]: 39%
Binding affinity relative to WT (%) [22]: 14%
Binding affinity relative to WT (%) [23]: 12%
Binding affinity relative to WT (%) [24]: 31%
Binding affinity relative to WT (%) [25]: 44%
Binding affinity relative to WT (%) [26]: 6%
Binding affinity relative to WT (%) [27]: 84%
Binding affinity relative to WT (%) [28]: 34%
Binding affinity relative to WT (%) [29]: 83%
Binding affinity relative to WT (%) [30]: 15%

b12 (antibody)
EC50 (read off the curve) [32]: 0.01 µg/mL

synagis (antibody)
Luminex reactivity (unit not given) [33]: 2
Luminex reactivity (unit not given) [34]: 3
Luminex reactivity (unit not given) [35]: 2.5
Luminex reactivity (unit not given) [36]: 1.3
Luminex reactivity (unit not given) [37]: 3.3
Luminex reactivity (unit not given) [38]: 4.8
Luminex reactivity (unit not given) [39]: 2
Luminex reactivity (unit not given) [40]: 2.3
